Key:
[1] = tested on: 3×MBT domain of L3MBTL1; assay: Triple SILAC pull-down, 3xMBT/3xMBTD355N ratio (cytoplasmic, nuclear and chromatin fractions of 293T cells); format: binding, human; details: for 3xMBT/D355N UNC Heavy: experiment with UNC0638 in heavy SILAC media; for 3xMBT/D355N UNC Light: experiment with UNC0638 in light SILAC media;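 as to all read-outs here: proteins quantified with MaxQuant, requiring at least two unique peptides and quantification in both label directions, normalized to the mean of proteins from a digested loading control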
[2] = target: T1, G9a and GLP (Homo sapiens, UniProt Q96KQ7+Q9H9B1); assay: Triple SILAC pull-down after UNC0638 treatment of 293T cells, DMSO/UNC0638 ratio of protein captured by 3×MBT; format: cell-based; details: for Relative to UNC0638 UNC Heavy: UNC0638 in heavy SILAC media; for Relative to UNC0638 UNC Light: UNC0638 in light SILAC media; for Relative to UNC0638 Average: average of UNC Light and UNC Heavy experiments; for Candidate G9a/GLP target: reduced association with 3xMBT after UNC0638 treatment;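 as to all read-outs here: mass spectrometry (Q-Exactive) SILAC quantitation, DMSO/UNC0638 ratio computed after subtracting 3×MBTD355N mutant pull-down background, only proteins with at least twofold 3×MBT over mutant signal considered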
T1 construct: endogenous in cells; host or cells: HEK 293T
T1 sequence (Q96KQ7 2-1210 limits assumed): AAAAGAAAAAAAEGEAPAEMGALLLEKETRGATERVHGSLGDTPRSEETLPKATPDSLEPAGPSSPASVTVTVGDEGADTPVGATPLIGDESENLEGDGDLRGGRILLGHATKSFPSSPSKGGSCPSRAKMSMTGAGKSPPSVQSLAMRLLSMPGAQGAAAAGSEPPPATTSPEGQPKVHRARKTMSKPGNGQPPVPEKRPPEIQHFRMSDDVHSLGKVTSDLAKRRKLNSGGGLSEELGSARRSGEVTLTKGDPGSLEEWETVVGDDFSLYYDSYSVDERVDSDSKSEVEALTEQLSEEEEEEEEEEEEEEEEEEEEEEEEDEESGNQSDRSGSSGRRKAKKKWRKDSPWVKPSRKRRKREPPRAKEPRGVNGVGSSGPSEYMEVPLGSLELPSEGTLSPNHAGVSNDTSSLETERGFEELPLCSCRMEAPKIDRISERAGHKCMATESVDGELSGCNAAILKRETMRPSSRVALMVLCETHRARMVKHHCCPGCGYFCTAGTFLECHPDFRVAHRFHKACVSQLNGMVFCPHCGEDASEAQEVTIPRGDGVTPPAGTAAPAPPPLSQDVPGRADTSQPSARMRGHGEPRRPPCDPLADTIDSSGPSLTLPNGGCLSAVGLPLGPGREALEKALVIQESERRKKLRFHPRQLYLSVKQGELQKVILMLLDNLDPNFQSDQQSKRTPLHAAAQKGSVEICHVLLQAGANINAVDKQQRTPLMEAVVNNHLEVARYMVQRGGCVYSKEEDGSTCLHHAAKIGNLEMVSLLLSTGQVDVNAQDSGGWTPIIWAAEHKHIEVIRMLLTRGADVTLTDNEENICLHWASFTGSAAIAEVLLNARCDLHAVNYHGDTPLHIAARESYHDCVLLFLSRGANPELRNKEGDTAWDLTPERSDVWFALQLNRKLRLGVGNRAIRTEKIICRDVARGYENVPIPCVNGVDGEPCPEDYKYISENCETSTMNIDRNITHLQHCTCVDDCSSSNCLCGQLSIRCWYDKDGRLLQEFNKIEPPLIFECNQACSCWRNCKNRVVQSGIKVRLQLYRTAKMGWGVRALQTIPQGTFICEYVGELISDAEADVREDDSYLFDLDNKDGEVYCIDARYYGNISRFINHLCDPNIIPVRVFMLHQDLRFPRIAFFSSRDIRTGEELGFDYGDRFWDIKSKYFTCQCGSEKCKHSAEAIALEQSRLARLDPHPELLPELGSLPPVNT
T1 sequence (Q9H9B1 2-1298 limits assumed): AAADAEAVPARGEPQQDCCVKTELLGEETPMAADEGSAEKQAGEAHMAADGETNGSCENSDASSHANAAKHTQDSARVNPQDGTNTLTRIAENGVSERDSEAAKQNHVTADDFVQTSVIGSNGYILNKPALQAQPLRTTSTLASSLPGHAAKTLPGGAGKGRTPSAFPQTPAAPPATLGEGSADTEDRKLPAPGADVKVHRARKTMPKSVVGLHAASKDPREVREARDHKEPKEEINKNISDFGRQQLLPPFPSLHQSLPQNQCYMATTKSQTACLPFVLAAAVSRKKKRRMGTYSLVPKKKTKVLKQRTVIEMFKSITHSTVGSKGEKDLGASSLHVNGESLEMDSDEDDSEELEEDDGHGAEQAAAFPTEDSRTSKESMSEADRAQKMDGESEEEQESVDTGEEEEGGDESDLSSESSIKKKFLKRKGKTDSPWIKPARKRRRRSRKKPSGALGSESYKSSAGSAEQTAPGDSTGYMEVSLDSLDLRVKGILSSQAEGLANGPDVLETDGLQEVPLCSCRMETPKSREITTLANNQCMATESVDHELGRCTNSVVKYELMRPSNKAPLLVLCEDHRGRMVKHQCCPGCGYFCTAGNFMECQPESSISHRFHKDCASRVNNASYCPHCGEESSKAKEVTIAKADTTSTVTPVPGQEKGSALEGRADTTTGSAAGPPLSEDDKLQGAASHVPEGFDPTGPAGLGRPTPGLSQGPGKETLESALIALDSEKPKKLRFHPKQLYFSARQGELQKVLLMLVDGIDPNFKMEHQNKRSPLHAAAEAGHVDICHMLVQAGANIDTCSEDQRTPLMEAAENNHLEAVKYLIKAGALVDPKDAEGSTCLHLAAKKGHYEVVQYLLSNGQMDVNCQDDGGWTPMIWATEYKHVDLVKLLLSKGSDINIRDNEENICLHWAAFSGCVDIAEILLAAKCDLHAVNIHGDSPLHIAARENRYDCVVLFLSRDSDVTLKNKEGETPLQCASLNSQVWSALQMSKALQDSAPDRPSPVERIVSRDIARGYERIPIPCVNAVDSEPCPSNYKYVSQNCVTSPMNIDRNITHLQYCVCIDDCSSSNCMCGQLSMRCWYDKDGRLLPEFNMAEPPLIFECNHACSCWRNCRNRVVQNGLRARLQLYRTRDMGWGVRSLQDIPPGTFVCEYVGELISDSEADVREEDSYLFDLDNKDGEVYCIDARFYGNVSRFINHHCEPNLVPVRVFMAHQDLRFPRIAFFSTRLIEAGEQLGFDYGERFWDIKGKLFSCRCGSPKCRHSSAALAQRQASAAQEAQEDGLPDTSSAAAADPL

[3] = SILAC ratio, pull-down 3xMBT vs 3xMBTD355N
[4] = SILAC ratio DMSO/UNC0638 of protein pulled down with 3xMBT
[5] = SILAC ratio 3xMBT vs 3xMBTD355N pull-down, 293T cells, all values in log base 2
[6] = SILAC ratio DMSO relative to UNC0638, pull-down with 3xMBT, all values in log base 2

| Substance | 3xMBT/D355N UNC Heavy [1, 3] [log base 2] | 3xMBT/D355N UNC Light [1, 3] [log base 2] | Relative to UNC0638 UNC Heavy [2, 4] [log base 2] | Relative to UNC0638 UNC Light [2, 4] [log base 2] | Relative to UNC0638 Average [2] [log base 2] | Protein Ratios 3xMBT/D355N ([1]; SILAC ratio, pull-down by 3xMBT vs 3xMBTD355N, 293T cells) | Protein Ratios DMSO/UNC0638 ([2]; SILAC ratio of protein captured by 3xMBT, 293T cells treated 24 hours with UNC0638 at 2.5 μM or DMSO) | 3xMBT/D355N UNC Heavy [1, 5] [log base 2] | 3xMBT/D355N UNC Light [1, 5] [log base 2] | Relative to UNC0638 UNC Heavy [2, 6] [log base 2] | Relative to UNC0638 UNC Light [2, 6] [log base 2] | Relative to UNC0638 Average ([2]; all values in log base 2) [log base 2] | Candidate G9a/GLP target [2] |
| --- | --- | --- | --- | --- | --- | --- | --- | --- | --- | --- | --- | --- | --- |
| HDGF | 1.65 | 2.78 | 0.23 | 0.22 | 0.23 | – | – | – | – | – | – | – | – |
| GTF3C1 | 0.63 | 2.08 | 1.93 | −0.06 | 0.93 | – | – | – | – | – | – | – | – |
| FAM98A | 2.99 | 4.03 | 0.57 | 0.19 | 0.38 | – | – | – | – | – | – | – | – |
| SNRNP200 | 2.08 | 3.14 | 0.19 | 0.26 | 0.22 | – | – | – | – | – | – | – | – |
| PSME3 | 1.70 | 1.89 | 0.62 | −0.01 | 0.31 | – | – | – | – | – | – | – | – |
| MK167 | 2.59 | 2.26 | 0.61 | −0.25 | 0.18 | – | – | – | – | – | – | – | – |
| TFG | 4.21 | 4.03 | 0.16 | 0.22 | 0.19 | – | – | – | – | – | – | – | – |
| TARDBP | 2.44 | 2.40 | 0.18 | 0.21 | 0.20 | – | – | – | – | – | – | – | – |
| ATP-dependent DNA helicase Q1 | – | – | – | – | – | 18.8 | 1.4 | – | – | – | – | – | – |
| FBXO22 | – | – | – | – | – | – | – | 3.56 | 0.77 | 0.58 | −0.59 | 0.00 | – |
| NSUN2 | 0.25 | 2.00 | 4.51 | 0.18 | 2.35 | – | – | – | – | – | – | – | √✓ |
| LANCL1 | 1.33 | 1.63 | 0.14 | 0.23 | 0.18 | – | – | – | – | – | – | – | – |
| TRIM25 | 1.88 | 0.76 | 0.05 | 0.46 | 0.25 | – | – | – | – | – | – | – | – |
| CSDA | 3.85 | 3.10 | 0.30 | 0.73 | 0.52 | – | – | – | – | – | – | – | ✓ |
| TRIP12 | 0.66 | 1.34 | 0.46 | −0.24 | 0.11 | – | – | – | – | – | – | – | – |
| GSK3B | 1.95 | 2.25 | 0.41 | 0.03 | 0.22 | – | – | – | – | – | – | – | – |
| MAP4K5 | – | – | – | – | – | – | – | 1.69 | 0.87 | 0.63 | −0.72 | −0.04 | – |
